Test results: the nanobody polyreactivity screen of Harvey et al. (2022)

Experiment: yeast display, Sf9 membrane polyspecificity reagent, FACS + sequencing; frameworks hold sequencing errors
Method in brief: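 After 36–48 hours of galactose induction, yeast (Saccharomyces cerevisiae BJ5465) displaying a synthetic nanobody library were stained at 4 °C for 1 hour with 10% biotinylated, detergent-solubilized Sf9 membrane reagent. Streptavidin microbeads enriched the stained cells before FACS sorting into low and high (top ~1%) gates on anti-HA and streptavidin fluorescence. Each clone's polyreactivity label reflects its gate of origin.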

Sequence	polyreactivity (PSR sort gate)
QVQLVESGGGLVQEGGSLRLSCAASGFIFGYYAMGWYRQAPGKERELVAAISFSDGITYYADSVKGRFTISRDNAKNTVYLQMNSLKPEDTAVYYCATEILDYYYGSEYDYWGQGTQVTVSS	high polyreactivity
QVQVVESGGGLVQAGGSLRLSCAAYGRTISAYAMGWYRQAPVKERELVARITRYGGPTYYADSVKGRFTISRDYAKYTDYLQMNSLKAEVTAVDYCAARKYHLRTAYVYWGQGTEVTVSS	low polyreactivity
QVQLVESGGGLVQAGGSLRLSCAASGSIFRGYAMGWYRQAPGKERELVAAITKRGGNTYYADSVKGRFTISRDNAKNTVYLQMNSLKPDDTAVYYCAKAGWGKWVYAQMDYWGQGTQVTVSS	high polyreactivity
QDQLVESGGGLVQAGGSLRLICAASGFTITTYAMGWYRQAPGKERELVASISYSGGRTYYADSVKGRFTISRDNAKNTVYLQLNSLKPEDTAVYFCAAVGVRNRAPSRGGYWGQGPQVTVSS	high polyreactivity
QVQLVESGGGLVQAGGSLRLSCAASGSTFGWYAMGWYREAPGKERELVAAISWLGTSTYYADSVKGRFTISRDNAKNTVYLQLNSLKPEDTAVYFCAADAYDVYYAYYYWGQGTQVTVSS	high polyreactivity
QVQLVDSGGGLVQAGATLRLSGAASGRIFGCNAMGWYRQAPGKVRELVAAISNGGSTYYADSVKGRFTISRDNAKNTVYFQMNSLKPEDTAVYYCNAAARIGYARRFYYWGQGTQVTVSS	high polyreactivity
QVQLQESGGGLEQAGGSLRLSCAASGYISDIGTMGWYRQAPGKEREFVATIVVGSTTNYADSVKGRFTISRDNAKNTVYLKPESGRYRGVLLRGWLLAVGKFTYWGQGTQETVSS	low polyreactivity
QVQLVESGGGLVQAGGSLRLSCAASGITFRGNAMGWYRQAPGKERELVATISSGGITNYADSVKGRFTISRDNAKNTVYLQMNSLKPEDTAVYSCAADLFVHKPRYQYSFDYWGQGTQVTVSS	low polyreactivity
HVQLVESGGGLVQAGGSLPLSCAASGRTFDHYAMGWYRQAPGKEREFVAAITSGGSTYYADSVKGRFRISRDNAKNTVYLQMNSLKPVDTAVYYCNNDSSFWGYYIAQVNERDYWGQGTQVTVSS	low polyreactivity
QVQLVESGGGLVQAGGRLRLSCAASGSTIPRYAMGWSRQAPGKERELVAAITNGGSTNYADSVKGRFTISRDNAKNTVYLQMNSLKPEDTAVYYCAKRFGYRFYYGGQGTQVTVSS	high polyreactivity
QVQLVESGGGLVQAGGSLRLSCAASGFTFARYTMGWYRQAPGKERELVAAISSRGSSTYYADSVKGRFTISRDNAKNTVYLQMNSLKPEDTAVYYCAASPYDTQTLDYAYWGQGTQVTVSS	high polyreactivity
QVQLVESGGGLVQAGGSLRLSCAASGFTFGSYVMGWYRQAPGKERELVADISIRGGSTYYADSVKGRFTISRDNSKNTVYLQMNSLKPEDTAVYYCAASYFPFNSGRKVGYWGQGTQVTVSS	low polyreactivity
QDQHVESGGGLVQAGGSLRLSCAAPGITFYPYDMGWYRQAPGKERELVASISRSGGSTYYADSVKGRFTISRDNAKNTVYLQMNSLKPEDTAVYYCNAYSTRGMYSWGQGTQVTVSS	high polyreactivity
QVQLVESGGGLVQAGGSLRLSCAASGTFYRNAMGWYRQAPGKERELVAAISSGSNTDYADSVKGRFTISRDNAKNTVYLQMNSLKPEDTAVYYCNADRGDLYELRGSGYLDGYWGQGTQVTVSS	low polyreactivity
QVQLVESGGGLFQAGGSLRLSCAASGYIFRSYAMGGYRQAPGKERELVAAITRSGGSTYYADSVKGRFTISRDNAKNTVYFQMNSLKPEDTAVYYCAVLPRGSNGMDYCGQGTQVTVSS	low polyreactivity
QLQHVDSGGGLVQAGGSLRLSCATSGIIFYDYDIGWSRQAPEKESELVARISRNGGRTYYADSVKGRFTISRDNAKNTVYLQMNSLNPEDTAVYYCNGVYFVTTSPGSDYWGQGTQVTVSS	high polyreactivity
QVQLVESGGGLVQAGGSLRLSCAASGLIFAEYTMGWYRQAPGKERELVAAISWNGGSTYYADSVKGRFTISRDNAKNTVYLQMNSLKPEDTAVYYCAARYKRVKWYRYEYWGQGTQVTVSS	high polyreactivity
QVQLVESGGGLVQAGGSLRLSCAASGSTFGYYAMGWYRQAPGKERELVAAITIRGDGTYYADSVKGRFTISRDNAKNTVYLQMNSLIPEDTAVYYCAAEDWLWFDYWGQGTQVTVSS	high polyreactivity
QVQLVESGGGLVQARGSLRLSCAASGSIFDPNAMGWSRQAPGKVRELGAAMTSGGGSTYYADSVKGRFTISRDNAKNTVYLQMNSLKPEDTAVYYCNNVFVLPYNFVAWFDYWGQGTQVTVSW	low polyreactivity
QVQLVESGGGLVQAGGSLRLSCAASGLTLTGYAMGWYRQAPGKERELVAAISQDGGNTYYADSVKGRFTISRDNAKNTVYLQMNSLKREDTAVYYCAAVGRAKYYYWGQGTQVTVSS	low polyreactivity
QVQLVESGGGLVQAGGSLRLSCAASGFIFFGYAMGWYRQAPGKERELVAAITSGGSTYYADSVKGRFTISRDNAKNTVYLQMNSLKPEDTAVYYCAAVRWYGSKRYGYWGQGTQVTVSS	high polyreactivity
QVQLVESGGGLVQAGGSLRLSCAASRRTFYEYAMGWYRQAPGKERELVAAITRSGGSTYYADSVKGRFTISRDNAKNTVYLQMNSLKPEDTAVYYCAAYRHQYRVRYYTAYDYWGQGTQVTVSS	high polyreactivity

Sequence	polyreactivity (PSR sort gate)
QVQLVESGGGLFQAGGSLRLSCAASGRTFLYYTMGWYRQAPGKERELVAAITSGTSTNYADSVKGRFTISRDNAKNTVYLQMNSLKPEDTAVYYCNKRAARSLNGYPLYGYYYWGQGTQVTVSS	low polyreactivity
QVQLVESGGGLVQAGGSLRLSCAASGSIFFYYTMGWYRQAPGKERELVAAISVGGSTYYADSVKGRFTISRDNAKNTVYLQMNSLKPEDTAVYYCNAVPAKGYVTVVRYYYWGQGTQVTVSS	low polyreactivity
QVQLVESGGGLVQAGGSLRLICAASGNIFVPSAMGWYRQAPGKERELVAAINGGGSTNYADSVKGRFTISRDNAKNTVYIQMISLKPEDTAVNYCAAVWYFLSLWYDYWGQGTQVTVSS	high polyreactivity
QVQLVESGGGLVQAGGSLRLSCAASGSIFTVNTMGWYRQAPGKERELVATISKRGGRTYYADSVKGRFTISRDNAKNTVYLQMNSLKPEDTAVYYCNRVASGYPVGTSIDYGYWGQGTQVTVSS	high polyreactivity
QVQHVESGGGLVQAGGSLRLSCAASGLTFKANAMGWYRQAPGKERELVAAITWSGTSTYYADSVKGRFTISRDNAKNTVYLQMNRLKPEDTAVYYCNKPYDVWYHDYDYWGQGTQVTVSS	low polyreactivity
QVQLVESGGCLVQARGSLRLSCASSGRMISYNAMGWYRQRPGKDMELGAAINSSGGSTYDADSVKGRFTISRDNAKNTVSLQMNSLKAEDTAFYYCNVLHIPSTTMDYWPQGTQVTVSS	high polyreactivity
QVQLVESGGGLVQAGGSLRLICAASGRTFTHNAMGWSRQAPGKERELVAGITSGCSTNYADSVKGRFTISRDNAKNTVYLQMNSLKPEDTAVYYCNKVFFWSRYKGYYYWGQGTQVTVSS	high polyreactivity
QVQLVESGGGLVQAGGSLRLSCAASGSIFHYYAMGWYRQAPGKERELVADITSGGSTNYADSVKGRFTISRDNAKNTVYVQMNSLKQEDTAVYYCNASFQSWLVRVPGDYWGQGTQVTVSS	low polyreactivity
QVQLVESGGGLVQAGGSLRLSSAASGSTSDNAMGWYRQAPGKEMEFVAAITSSGGSTTYADSVKGRFTISRDNAKNTVYLQMNSLKPEDTAVYYCNAGRVYYSNGYDYWGQGTQVTVSS	low polyreactivity
QVQLVESGGGLVQAGGSLRLSCAASGSTFTGYALGWYRQAPGKERELVAAISSGGSTYYADSVKGRFTISRDNAKNTVYLQMNSLKPEDTAVYYCAAAPRWKASRLYYWGQGTQVTVSS	high polyreactivity
QVQLVESGGGLVQAGGSLRLSCAASGRTFRYYAMGWYRQAPGKERELVAAISWSGSSTYYADSVKGRFTISRDNAKNTVYLQMNSLKAEDTAVYFCNAKGVRGKYFDYSRVSAYDYWGQGTQVTVSS	low polyreactivity
QVQLVESGGRLVQAGGSLRLTCAASGFIFKTNGMRWYRKAPGKERELVAAITSRGGSTYYADSVKGRFTISRDNAKNNVYLQMNSLKPEDTAVYYCAARGSRYTDYDYWGQGTHVTVSS	high polyreactivity
QVQLVESGGGLVQAGGSLRVSCAASGSTFTGYAMGWYRQAPGKERELVAAISRGGSTNYADSVKGRFTISRDNAKNTVYLQMNSLKPEDTAVYYCAAETYYFGYGYWGQGTQVTVSS	high polyreactivity
QVQLVESGGGLVQAGGSLRLSCAASGRTFSRYAMGWSRQAPGKERELVASITSRGGSTYYADSVKGRFTISRDNAKNTVYLQMNSLKPEDTAVYYCNVKPTYSTRYWEDYWGQGTQVTVSS	high polyreactivity
QVQREESGGGLVQAGGSLRLSCAASGSIFVGNAMGWYRQAPGKESELVAAITASGTSTYYADSVKGRFTISRDNAKNTVYLQMNSLKPEDTAVYYCNAVQLVYDQYRYDYWGQGTQVTVSS	high polyreactivity
QVQLVESGGGLVQAGGSLRLSCAASGSIFKRYAMGWYRQAPGKERELVAAISWSGGNTYYADSVKGRFTISRDNAKNTVYLQMNSLKPEDTAVYYCAALHRVGYSEYGYWGQGTQVTVSS	high polyreactivity
QVQLVESGGGLVQAGGSLRLSCAASGSTFFRYAMGLYRQAPGKEREFVAAITWSGTGTYYADSVKGRFTISRDNAKNTVYLQMNSLKPEDTAVYYCAARRSSNVRRDYWGQGTQVTVSS	high polyreactivity
QVQLVESWGGLVQAGCRLRLSCAASGRTFLTYVMGWYRQAPGKERELVAAITRGGRTNYADSVKGRFTISRDNAKNTVFLQMNSLKPEDTAVYYCARDDTPRYDYWGQGTQVTVSS	low polyreactivity
QVHLLESGGGLVQAGGSLRLSCAAPGSTLFNYDMGWSRQAPGKERELLAAITTSGDSTYYADSVKGRFTISRDNAKNTVYFQMNSLKPEDTAVYYCNADVFKTVFYIDRYYYWGQGTKVTVSS	low polyreactivity
QVQLVESGGGLVQAGGSLRLSCAASGSIYWYAMGWYRQAPGKERELVAAISRRGGSTYYADSVKGRFTISRDNDKNTVYLQMNSLKPEDTAVYYCAVGIYGEYDYWGQGTQVTVSS	high polyreactivity
QVQLVESGGGLVQAGGSLRLSCAASGRIFPEYTMGWYRQAPGKERELVAAISKRGSSTNYADSVKGRFTISRDNAKNTVYLQMNSLKPEDTAVYYCAARGYTLSYVDMYYWGQGTQVIVSS	high polyreactivity
